The target in one data set is gp4-Y111A (bacteriophage T7, UniProt P03692 1-566, Y111A). Description: double-filter binding; 1 mM [beta,gamma-CH2] dTTP, 10 mM MgCl2; Filter binding: 40 mM Tris-HCl pH 7.5, 50 mM potassium glutamate, 10 mM MgCl2, 5 mM DTT, 1 mM [beta,gamma-CH2] dTTP, 30 min, 25 C; mass photometry: 40 mM Tris-HCl pH 7.5, 150 mM KCl, 10 mM MgCl2, 25 C, 8.7 nM gp4 hexamer, 10 nM ssDNA. The note with it: protein: recombinant; tags: His (implied: pET28, TALON); chain copies: 6; label: 5'-32P; single strand.

In data set [1] the target is gp4 WT (T7 primase-helicase) (bacteriophage T7, UniProt P03692 1-566). Described as above. The note with it: protein: recombinant; tags: His (implied: pET28, TALON); chain copies: 6; label: 5'-32P; single strand.

Take ATGACCATGATTTCGACGTTTTTTTTTTTGGGGATCCTCTAACCTGCGCA (ssDNA) [50-nt ssDNA, 5'-32P]: the Kd with gp4-Y111A is 93 nM; in data set [1], 14 nM.

By Kd is commonly meant the constant that tells how readily two partners part at equilibrium.

The record behind these values is PMC9198812, “Residues located in the primase domain of the bacteriophage T7 primase-helicase are essential for loading the hexameric complex onto DNA”.
